Test results: the nanobody polyreactivity screen of Harvey et al. (2022)

Test: yeast display, Sf9 membrane polyspecificity reagent, FACS + sequencing; frameworks hold sequencing errors
Procedure, shortened: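 Galactose induction of a Saccharomyces cerevisiae BJ5465 synthetic nanobody display library ran 36–48 hours. The cells were then stained for 1 hour at 4 °C with 10% biotinylated, detergent-solubilized Sf9 membrane reagent, pulled down on streptavidin microbeads and FACS-sorted into low and high (top ~1%) gates on expression and reagent-binding fluorescence. Labels for polyreactivity follow the gate of origin.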

Row | Sequence | polyreactivity (PSR sort gate)
1 | QCQLVESGGGLVQAGGSLLLSCAASGFIFNRNAMGWSRQAPGKEREFVSAISTLGAGTYYADSVKGRFTISRDNAKNTVYLQMNSLKPEDTAVYYCAADIFRYGYYNRYSKVGYDYWGQGTQVTVSS | high polyreactivity
2 | QDHLVESGGGLVQAGGSLRLSCAASGFLFSQNVMGWYRQAPGKERELVAAISSGSRTYYADSVKGRFTISRDNAKNTVYLQMISLKPEDTAVYYCATDARVGGYVSEGDYWGLGTQVTVSS | low polyreactivity
3 | QDHLVESGGGLVQAGGSLRLSCAASGISFSVNAMGWSRQAPGKERELVASISSGGSTNYADSVTGRFTISRDNAKNTVYLQMNSLNPEDTAVSYCAAGYWNDFDWGQGTQVTVSS | low polyreactivity
4 | QDHLVESGGGLVQAGGSLRLSCAASGSTFGWYAMGWYRHAPGKERELVAVITRGGSTYYADSVKGHFTITLDNAKNTVYLQMNSLKPEDTAVYFCAARYRLPPYYYWGHGTQVTVSS | high polyreactivity
5 | QDHLVESGGGLVQAGGSLRLSCAASRRTLLRYAMGWYRQAPGKERELVAAISSSGGRTYYADSVKGRFTISRDNAKNTVYLQMNSLKPEDTAVYYCAAKSSYVGHDYWGQGTQVTVSS | high polyreactivity
6 | QDHLVESGGGLVQAGGSLRLSCSASGSNFRSYAMGWYRQAPGKERELVAAITWSGGRTYYADSVKGRFTISRDNAKNTVYLQMNSLKPEDTAVYYCNAVYLAYGGAYWGQGTQVTVSS | high polyreactivity
7 | QDHLVESGGGLVQAGGSLRLTCAASGSIFADYTMGWYRQATGKEMELVAAINNRDGGTYYADSVKGRFTISRDNAKNTVYLEMNSLKPEDTAVYYCTKQVDLSGQWDFWYGYYTYDYWGQGTQLTVSS | low polyreactivity
8 | QDHLVESGGGLVQAGGSLRVSCAASGLVYGQYAMGWYRPAPGKERELVAAINWSGGRTYYADSVKGRFTISRDNAKNTVYLQMNSLKPEDTAVYYCAADDPQDQDYENNYWGQGTQVNVSS | high polyreactivity
9 | QDKLVESGGGLVQAGGSLRLICAASGFTFNRYALGWYRKAPGKERELVAGITGGGSTKYADSVKGRFTISRDNAKNTVYLQMNSLKPEDTSVYYCNASGYSYGARYYYWGQGTQVTVSS | high polyreactivity
10 | QDLLVESGAGLVQAGGSVRLSCAASGRIVYTYAMAWYRQAPGIERELVAVISSGGSTYYADSVKGRFTNSRDNAKNTVYLQMNSLTPEDTAVYYCAAYGTKWGRGFYITGYGYWGQGTQVTVSS | low polyreactivity
11 | QDLLVESGGGLVQAGGSLRLSCAASGYTFGNNAMGWYRQAPGKERELVATISGGGRTKYADSVKGRFTISRDNAKNTVYLQMYSLKPEDTAVYYCNVVQTYYRGSYIYIKYGYWGQGTQVTVSS | high polyreactivity
12 | QDQHVESAGGVVQTGGSLRLSGAATGSIFGEYAMGWYRQPPGQEREFVADITRSDGSTYYADSVKGRFTISRDHAKNTVYFQMNSMKPEYTAVYYCAADSVLDRPVLYLGPWYLGDYWGQGTLVTVSS | low polyreactivity
13 | QDQHVESGGGLDQAGGSLRLSCAASGRTIRSYAMGGYRPAPRKESELVAAISSRGGNTYYADSVKGRFTISRDNAKYTVYLQMNSLKPEDTAVYYSNRVRYGVPLIVGDDYWGQGTQVTVSS | high polyreactivity
14 | QDQHVESGGGLVQAGCSLRLSCAASGSIFSWNAMGWYRQAPGKERELVAAIRWDTGSTYYADSVKVRFTISRDKAKNTVYLQMNRLKPEDTAVYYCAADLFDCQLIDGFAVVTYGYWGQGTQVTVSS | low polyreactivity
15 | QDQHVESGGGLVQAGGRLRLICAASGGNFTKNAMGWYRQAPGKERELVAGISRTGGNTYYADSVKGRFTISRDNAKNTVYLQMNSLKPDDTAVYYCNALYGGPHRLRYDYWGQGTQVTVSS | low polyreactivity
16 | QDQHVESGGGLVQAGGSLRLICAASGSIFIANAMGWYRQAPGKERELVAAITLNGGSTYYADSVKGRFTISRDNAKNTVYLQMNSLKPEDTAVYYCAADWVWVAPQYWFVEYDYWGQGTQVTVSS | low polyreactivity
17 | QDQHVESGGGLVQAGGSLRLSCAAPGITFYPYDMGWYRQAPGKERELVASISRSGGSTYYADSVKGRFTISRDNAKNTVYLQMNSLKPEDTAVYYCNAYSTRGMYSWGQGTQVTVSS | high polyreactivity
18 | QDQHVESGGGLVQAGGSLRLSCAASGFTFSDYALGWYRQAPGKERELVAAISTRGSSTYYADSVKGRFTISRDNAKNTVYLHLNSLKQDYTAVSYCNAVGSYSGYYYWGQGTHVTVSS | high polyreactivity
19 | QDQHVESGGGLVQAGGSLRLSCAASGRIFFHNAMGWSRQAPGKERELVAAIRSSTGSTYYADSVKGRFTISRDNAKNTVYLQMNSLKPEDTAVYYCARYAYANAYYGKSYWMGYWGQGTQVTVSS | high polyreactivity
20 | QDQHVESGGGLVQAGGSLRLSCAASGSTFPTNAMGWYRQAPGKERELVADITIRGGGTSYADSVKGRFTISRDNAKNTVYLQMNSLKPEDTEVYYCARSKSTELKRLLYDSWGQGTQVTVSS | low polyreactivity
21 | QDQHVESGGGLVQAGGSLRLSCAATGNIFRYYTMGWYRQAPRKERELVAAISWNGGSTYYADSVKGRFTISRDNAKNTVYLQMNSLKPEDTAVYYCNAVQYYEFDYWGQGTQVTVSS | low polyreactivity
22 | QDQHVESGGGLVQAGGSLRLSCDASGRTFRKNAMGSYRQARGKERELVAAISWSGDSTYYADSVKGRFTISRDNAKNTVYLQMNSLKPEDSAVYYCAADSRYHFYYWRQGTQVTVSS | high polyreactivity

Row | Sequence | polyreactivity (PSR sort gate)
23 | QDQHVESGGGLVQAGGSLRLSIAASASTIGFNAMGWYRQAPGKERELVAAITFSGGTTYYADSVKGRFTISRDNAKNTVYFQMNSLKPEDTAVYYCNADWWYQYSGPFAPWGEDYWGQGTQVTVSS | low polyreactivity
24 | QDQHVESVGGLVQAGGRLRLSSAASGLIFFDSPMVSDRQAPGKERELVAAISTTGGSTYYADSVKGRCTISRDNAKNSVYLEMNSLKPEDTAVYYCNARFVHHSWGTNYYWGQGTQVTVSS | high polyreactivity
25 | QDQHVESVGGLVQAGGSLRLSCAASGRTFAWNAMGWYRQAPGKERELVAVITSGGSTNYADSVKGRFTISRDNAKNTVYLQMKSLKPEDTALYYCAAGHSWVYGYDYWGQGTQVTVSS | low polyreactivity
26 | QDQLEDSGGGLVQAGGSLRLICAASGSIFDTYAMGWYRQAPGKERELVATISWSGDSTYYADSVKGRFTISRDNAKNTVYLQLNSLKPEDTAVYYCAATTDALVGRPRYDYWGQGTQVTVSS | low polyreactivity
27 | QDQLGESGGGLVQAGGSLRLSCAASGRSFTYYTMGWYRQAPGKERELVATINNSGGSTYYADSVKGRFTISRDNAKNTVYLQMNSLKPEDTAVYYCAKVLGLPYGAPRSIFVEWEMDYWGQGTQVTVSS | low polyreactivity
28 | QDQLLESGGGLVQAGGSLRISCAASGRTIIRNAMGWSRQAPGKERELVAAITSGGSTNYADSVKGRFTISRDNAKNTVYLQMNSLKPEDTAVYYCAARYGSQYKHRFYYWGQGTQVTVSS | high polyreactivity
29 | QDQLQESGGGLVQAGGSLRLSCAASGRIIYGYAMGWYRQAPGKERELVAAITATYYADSVKGRFTISRDNAKNTVYLQMNSLKPEDTAVYYCNAYLSPKQPLSPPDPTFEGGYWGQGTQVTVSS | low polyreactivity
30 | QDQLVDSGGGLVQAGGSLRLSCAASGIIFYRYAMGWYRQAPGKERELVATITASGGRTYYADSVKGRFTISRDNAKNTVYLQMNSLKPEDTAVYYCAAVSSYRLYSDYGYWRQGTQVTVSS | high polyreactivity
31 | QDQLVDSGGGLVQAGGSLRLSCAASGLSFDLYDMGWYRQAPGKERELVAAIDWSATRTYYADSVKGRFTISRDNAKNTVYLQMNSLKPEDPAVYYCNAEAVYEYWIYDYWGQGTQVTLSS | high polyreactivity
32 | QDQLVDSGGGLVQAGGSLRLSSAASGFSYGGYAMGWYRQAPGKERELVAAISSGGGTTYADSVKGRFTISRDNAKYTVYLQMNSLKPEDTAVYYCAAVTRDYRNDRRRQRCYYWGQGTQVTVSS | high polyreactivity
33 | QDQLVEAGGGLVQAGGSLRLSCAASGFTFYPYAMGWYRQAPGKERELVAAISYSGDRTYYADSVKGRFTISRDNAKNTVYLQMNSLKPEDTAVYDCVSAVHPGKYYYWGQGTQVTESS | high polyreactivity
34 | QDQLVESAGGLVQAGGSLRLSCAASGRIFSRYAMGWYRQAPGKERELVAAITQSGTSTYYADSVKGRFTISRDIAKNTVYLQMNSLKAEDTAVYYCNAYSQYRYDYWGQGTQVTVSS | low polyreactivity
35 | QDQLVESAGGLVQAGGSLRLSCAASGSIFTSNAMGWYRQAPGKETELVAAITSSGGSTYYADSVKGRFTISRDNAKNTVYVQMNSLKPEVTAVYYCAGAKFDLSFWLYYWGQGTQVTVSS | low polyreactivity
36 | QDQLVESAGGLVQAGGSLRLSCAASGSTFVRNAMGWYRQEPGKERELVAAISVDGSSTYYADSVKGRFTISRDIAKNTVYLQMNSLKPEVTAVYYCNADWDYRDFYAITYDFWGQGTQVTVSS | low polyreactivity
37 | QDQLVESAGGLVQAGGSLRLSCAATASTFHLYAMGWYRQAAGKERELVASIRWSGGSTYYADSVKGRFTISRDNAKNTVYLQMNSLKPEDTAVYYCASEAVPYWSWGRPMYYWGQGTQVTVSS | high polyreactivity
38 | QDQLVESAGGLVQAGGSLSLSCAASGNIFVYYAMGWYRQAPGKERELVAAITSDVSTYYADSVKGRFTISRDNAKNTVYLQMNSLKPEDTAVYYCATTGYGSYVIYGGQGTQVTVSS | low polyreactivity
39 | QDQLVESCGGLVQAGGSLRLSCASSGIIFVNYAMGWYRQAPGKERELVAAITTSGGSTYYADSVKGRFTISRDNAKNTVYLQMNCLKPEDTAVYYCAKISSLFKHVVRYDYWGQGTQVTVSS | low polyreactivity
40 | QDQLVESGAGLVQAGRSLRLSCAASGSIFRWYAMGWYRQAPGKERELVAAISTSGGNTYYADSVKGRFTISRDNAKNTVYLEMKSLIPEDTAVYYCNALWYRSLYYRYDYWGQVTQVTVSS | high polyreactivity
41 | QDQLVESGGALVQAGGSLRLSCAASGFTYYGNAMGWYRQAPGKERELVAAISSSGGITYYADSVKGRFTISRDNAKNTVYLQMNSLKPEDTAVYYCAAVQGTPDYEYDSWGQGTQVTVSS | low polyreactivity
42 | QDQLVESGGCLVQAGGSLRLSCAASGSIFTDNVMGWYRQATGKERELVAAITSTGGNTYYADSVKGRFTISRDNAKNTVYLQMNSLKREDTAVYYCNKDVARYPYGKFDYWGQGTQVTVSS | low polyreactivity
43 | QDQLVESGGCLVQAGGSLRLSCAAYGSTFYRYTMGWYRQAPGKERELVAAISRSGGRTYYADSVKGRFTLSRDNAKNTVFVQINSLKPEDTAVYYCNAEIASSAVQAQEGDYWGQGTQVTVSS | high polyreactivity
